We go through 16 molecules from patent publication US20160185837A1 (AstraZeneca / MedImmune, published 2016).

Positions count from the first letter of the chain named. Where only a bound is given, the exact number is not on record here.

First the molecules themselves.
T1: mouse GLP-1 receptor (mouse, UniProt O35659 22-463)
T1 sequence (looked up): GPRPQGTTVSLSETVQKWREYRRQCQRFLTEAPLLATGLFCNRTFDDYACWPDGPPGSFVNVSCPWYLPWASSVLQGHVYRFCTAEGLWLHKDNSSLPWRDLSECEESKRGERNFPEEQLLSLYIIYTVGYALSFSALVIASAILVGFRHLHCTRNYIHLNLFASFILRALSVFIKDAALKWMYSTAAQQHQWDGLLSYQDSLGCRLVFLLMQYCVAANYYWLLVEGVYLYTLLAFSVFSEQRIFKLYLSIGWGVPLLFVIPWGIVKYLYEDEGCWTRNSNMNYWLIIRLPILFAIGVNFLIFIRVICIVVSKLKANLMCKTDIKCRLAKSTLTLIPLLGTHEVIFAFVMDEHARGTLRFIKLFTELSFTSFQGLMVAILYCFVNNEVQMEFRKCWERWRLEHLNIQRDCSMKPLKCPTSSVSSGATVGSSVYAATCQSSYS

T2: human GIP receptor (human, UniProt P48546 22-466)
T2 sequence (looked up): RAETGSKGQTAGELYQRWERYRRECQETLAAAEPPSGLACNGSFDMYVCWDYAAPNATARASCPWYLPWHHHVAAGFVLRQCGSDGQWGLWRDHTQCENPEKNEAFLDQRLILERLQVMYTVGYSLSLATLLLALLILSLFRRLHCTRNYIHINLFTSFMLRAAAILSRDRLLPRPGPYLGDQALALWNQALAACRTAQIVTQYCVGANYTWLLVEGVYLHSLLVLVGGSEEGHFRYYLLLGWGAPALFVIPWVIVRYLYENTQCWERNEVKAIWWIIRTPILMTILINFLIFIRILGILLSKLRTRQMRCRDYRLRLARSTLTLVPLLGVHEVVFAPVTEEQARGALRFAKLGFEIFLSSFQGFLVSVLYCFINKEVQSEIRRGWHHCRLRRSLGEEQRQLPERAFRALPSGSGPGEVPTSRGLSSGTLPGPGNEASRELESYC

T3: rat GLP-1 receptor (rat, UniProt P32301 22-463)
T3 sequence (looked up): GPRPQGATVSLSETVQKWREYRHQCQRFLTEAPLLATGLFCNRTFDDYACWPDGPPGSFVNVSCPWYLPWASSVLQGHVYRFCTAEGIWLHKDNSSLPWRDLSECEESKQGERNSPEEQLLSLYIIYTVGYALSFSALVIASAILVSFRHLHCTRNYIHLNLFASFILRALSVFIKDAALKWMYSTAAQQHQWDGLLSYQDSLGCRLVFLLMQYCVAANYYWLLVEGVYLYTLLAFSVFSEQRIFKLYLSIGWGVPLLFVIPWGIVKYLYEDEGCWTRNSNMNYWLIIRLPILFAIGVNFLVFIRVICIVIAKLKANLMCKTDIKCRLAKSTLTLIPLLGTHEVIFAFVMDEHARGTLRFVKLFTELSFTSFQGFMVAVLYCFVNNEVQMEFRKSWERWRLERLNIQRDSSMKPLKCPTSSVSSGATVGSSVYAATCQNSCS

T4: mouse GIP receptor (mouse, UniProt Q0P543 19-460)
T4 sequence (looked up): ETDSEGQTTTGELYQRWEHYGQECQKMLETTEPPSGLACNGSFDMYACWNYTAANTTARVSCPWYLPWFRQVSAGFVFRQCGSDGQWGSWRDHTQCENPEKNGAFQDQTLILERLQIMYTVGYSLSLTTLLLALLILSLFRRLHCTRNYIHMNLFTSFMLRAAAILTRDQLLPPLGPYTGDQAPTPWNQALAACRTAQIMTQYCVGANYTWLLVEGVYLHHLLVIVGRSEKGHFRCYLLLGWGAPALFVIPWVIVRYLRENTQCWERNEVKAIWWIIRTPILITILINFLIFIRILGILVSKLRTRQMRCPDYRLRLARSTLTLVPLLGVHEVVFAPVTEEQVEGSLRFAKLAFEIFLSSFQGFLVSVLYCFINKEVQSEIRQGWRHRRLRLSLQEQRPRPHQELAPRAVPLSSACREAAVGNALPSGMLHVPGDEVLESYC

T5: rat GIP receptor (rat, UniProt P43219 19-455)
T5 sequence (looked up): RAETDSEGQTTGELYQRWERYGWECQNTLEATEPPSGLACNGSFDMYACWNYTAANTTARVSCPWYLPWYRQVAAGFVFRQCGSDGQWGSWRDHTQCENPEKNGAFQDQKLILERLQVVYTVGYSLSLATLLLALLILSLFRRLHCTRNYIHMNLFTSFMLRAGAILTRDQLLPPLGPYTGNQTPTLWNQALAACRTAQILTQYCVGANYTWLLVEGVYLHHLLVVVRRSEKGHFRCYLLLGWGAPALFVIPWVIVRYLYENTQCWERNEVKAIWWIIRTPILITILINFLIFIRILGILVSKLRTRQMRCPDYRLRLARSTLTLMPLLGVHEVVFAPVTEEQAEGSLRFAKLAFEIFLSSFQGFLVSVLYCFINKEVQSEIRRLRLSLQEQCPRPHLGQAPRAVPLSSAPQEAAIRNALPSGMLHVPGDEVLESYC

B1: IP257 (Fc fusion)
chain: SEGTFTSDYSKLLEEEAVRLFIEWLVKGPGGGGGSGGGGSGGGGSGGGGSATHTCPPCPAPEF
B2: IP127 (Fc fusion)
chain: YSEGTFTSDVSSYLEEEAVREFIEWLLAGGAAAGGSGSTASSGSGSATGGGGAATHTCPPCPAPEF
B3: IP383 (Fc fusion)
chain: YSEGTFTSLYRILLEEEAVRLFIEWLLAGGGGGGSGGGGSGGGGSGGGGSATHTCPPC
B4: IP024 (Fc fusion)
chain: YSEGTFTSDYSKLLEEEAVRLFIEWLLAGAAAGGSGSTASSGSGSATGGGGAATHTCPPCPAPEF
B5: IP244 (Fc fusion)
chain: B4 chain with Y10V, A31P, A32P
B6: IP124 (Fc fusion)
chain: B4 chain with L27V, A28K
B7: IP222 (Fc fusion)
chain: YSEGTFTSDYSKLLEEEAVRLFIEWLKNGGPSSGAPPPSAAAGGSGSTASSGSGSATGGGGAATHTCPPCPAPEF
B8: IP147 (Fc fusion)
chain: YSEGTFTSDYSKLLEEEAVRLFIEWLVKGPAPPGGSGSTASSGSGSATGGGGAATHTCPPCPAPEF
B9: IP228 (Fc fusion)
chain: B8 chain with V27K, K28N, P30G, P32A, P33A
B10: IP249 (Fc fusion)
chain: B2 chain with V10Y, S12K, Y13L, E21L, G29Q, G30K
B11: IP245 (Fc fusion)
chain: B8 chain with K12I, L13A, L14M, E15D, P32A, P33A
B12: IP421 (Fc fusion)
chain: HGEGTFTSDLSKQMEEECVRLFIEWLKNGGPSSGAPPPGCGSGGGGSGGGGSGGGGSGGGGSGGGGSGGGGSGGGGSACPPC
B13: IP411 (Fc fusion)
chain: YGEGTFTSDYSKLLEEEAVRLFIEWLVKGPGGGGGGGGGGGGGGGGGGGGACPPC
B14: IP423 (Fc fusion)
chain: YSEGTHTSDLRILLEEEAVRLFIEFLLAGGGSGGGGSGGGGSGGGGSGGGGSGGGGSGGGGSGGGGSACPPC
B15: IP416 (Fc fusion)
chain: B14 chain with H6F, L10Y, R11S, I12K, F25W
B16: IP415 (Fc fusion)
chain: B14 chain with Y1H, E3Q, H6F, L10Y, R11S, I12K, L13I, F25W

The target of the first assay is T1, mouse GLP-1 receptor. Nature of the assay: cell-based or functional assay.
As for B1, the “cAMP EC50” value worked out at 46 nM.

As to B2, the “cAMP EC50” value worked out at 0.6 nM.

With B3, the “cAMP EC50” value is 20.1 nM.

Consider B4, for which the “cAMP EC50” value turned out to be 1.1 nM.

For the molecule B5, the “cAMP EC50” value amounted to 0.79 nM.

Regarding B6, the “cAMP EC50” value was 0.42 nM.

For the molecule B7, the “cAMP EC50” value is 0.46 nM.

In the case of B8, the “cAMP EC50” value turned out to be 8.5 nM.

On to B9, for which the “cAMP EC50” value is 0.69 nM.

With B10, the “cAMP EC50” value came to 15 nM.

On to B11, for which the “cAMP EC50” value came to 4.8 nM.

The next assay concerns the target T2, human GIP receptor. Nature of the assay: cell-based or functional assay.
For the molecule B1, the “cAMP EC50” value was determined as 180000 pM.

As to B2, the “cAMP EC50” value was 120 pM.

For B4, the “cAMP EC50” value came to 7.1 pM and the “cAMP EC50, Batch 2” value turned out to be 10 pM.

Consider B5, for which the “cAMP EC50” value came out at 42 pM.

On to B6, for which the “cAMP EC50” value amounted to 9 pM.

On to B7, for which the “cAMP EC50” value was determined as 15 pM.

Turning to B8, the “cAMP EC50” value was found to be 3.7 pM.

As for B9, the “cAMP EC50” value was determined as 14 pM.

With B10, the “cAMP EC50” value amounted to 19 pM.

Consider B11, for which the “cAMP EC50” value came to 150 pM.

A further assay addresses T3, rat GLP-1 receptor. Nature of the assay: cell-based or functional assay.
Turning to B1, the “cAMP EC50” value was 1300 pM.

Regarding B2, the “cAMP EC50” value worked out at 47 pM.

As to B3, the “cAMP EC50” value stood at 130 pM.

Consider B4, for which the “cAMP EC50” value was 83 pM.

Consider B5, for which the “cAMP EC50” value stood at 66 pM.

Consider B6, for which the “cAMP EC50” value was found to be 62 pM.

On to B7, for which the “cAMP EC50” value amounted to 58 pM.

With B8, the “cAMP EC50” value is 1100 pM.

With B9, the “cAMP EC50” value came out at 96 pM.

On to B10, for which the “cAMP EC50” value amounted to 150 pM.

Regarding B11, the “cAMP EC50” value turned out to be 400 pM.

A further assay deals with T4, mouse GIP receptor. Nature of the assay: cell-based or functional assay.
In the case of B1, the “cAMP EC50” value amounted to 4300 nM.

Consider B3, for which the “cAMP EC50” value worked out at 46.7 nM.

For the molecule B12, the “cAMP EC50” value was > 106 nM.

With B13, the “cAMP EC50” value was > 631 nM.

On to B5, for which the “cAMP EC50” value is 3.6 nM.

In the case of B6, the “cAMP EC50” value stood at 130 nM.

Turning to B14, the “cAMP EC50” value was 12 nM.

Take B15: the “cAMP EC50” value is 1.1 nM.

In the case of B16, the “cAMP EC50” value is 5.6 nM.

In the case of B7, the “cAMP EC50” value was found to be 160 nM.

B10: the “cAMP EC50” value was 180 nM.

Consider B11, for which the “cAMP EC50” value was determined as 190 nM.

The target of a further assay is human GLP-1 receptor (human, UniProt P43220 24-463). Nature of the assay: cell-based or functional assay.
Regarding B1, the “cAMP EC50” value amounted to 7200 pM.

Turning to B2, the “cAMP EC50” value amounted to 87 pM.

In the case of B3, the “cAMP EC50” value came out at 190 pM.

Consider B12, for which the “cAMP EC50” value amounted to 3000 pM.

For the molecule B13, the “cAMP EC50” value is 420 pM.

Turning to B4, the “cAMP EC50” value was determined as 95 pM and the “cAMP EC50, Batch 2” value came out at 160 pM.

Turning to B5, the “cAMP EC50” value was determined as 180 pM.

As for B6, the “cAMP EC50” value is 91 pM.

On to B14, for which the “cAMP EC50” value is > 34200 pM.

In the case of B15, the “cAMP EC50” value turned out to be 100 pM.

Take B16: the “cAMP EC50” value amounted to 38 pM.

Regarding B7, the “cAMP EC50” value was determined as 140 pM.

For B8, the “cAMP EC50” value was determined as 67 pM.

Consider B9, for which the “cAMP EC50” value came to 160 pM.

For the molecule B10, the “cAMP EC50” value came to 2600 pM.

For B11, the “cAMP EC50” value came out at 460 pM.

The target of a further assay is T5, rat GIP receptor. Nature of the assay: cell-based or functional assay.
Consider B1, for which the “cAMP EC50” value was found to be 190000 pM.

For the molecule B2, the “cAMP EC50” value is 17000 pM.

For B3, the “cAMP EC50” value was 976 pM.

As for B4, the “cAMP EC50” value amounted to 47 pM.

Regarding B5, the “cAMP EC50” value was 170 pM.

B6: the “cAMP EC50” value is 310 pM.

Regarding B7, the “cAMP EC50” value is 720 pM.

For B8, the “cAMP EC50” value was determined as 6800 pM.

As to B9, the “cAMP EC50” value came to 7000 pM.

Take B10: the “cAMP EC50” value turned out to be 190 pM.

Regarding B11, the “cAMP EC50” value came out at 48000 pM.

The next assay addresses human glucagon receptor (human, UniProt P47871 26-477). The experiment in a line: cell-based or functional assay.
With B3, the “cAMP EC50” value is > 1610 nM.

In the case of B12, the “cAMP EC50” value was > 106 nM.

Turning to B13, the “cAMP EC50” value is > 631 nM.

In the case of B4, the “cAMP EC50” value was determined as 17 nM and the “cAMP EC50, Batch 2” value was found to be 25 nM.

With B14, the “cAMP EC50” value was > 34.2 nM.

B15: the “cAMP EC50” value is 3.4 nM.

B16: the “cAMP EC50” value worked out at 0.018 nM.

In the case of B7, the “cAMP EC50” value was found to be 590 nM.

Regarding B8, the “cAMP EC50” value came out at 130 nM.

As for B9, the “cAMP EC50” value was determined as 1400 nM.
